± gives the uncertainty stated by the source.
Assay: protein stability index of a GFP-peptide fusion (yeast GPS) (PSI 1-4); higher = more stable; sorted into four equal gates, so the index is relative within each strain
Procedure, shortened: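 Tiled 17-residue yeast protein peptides were fused downstream of GFP in a plasmid that also expresses Cherry, and the pooled library was carried in yeast. Mid-log cultures in leucine-free medium were sorted into four equal gates by GFP/Cherry fluorescence ratio, and plasmids from each gate were PCR-amplified and Illumina-sequenced, with reads assigned to strains by barcodes. The protein stability index for each peptide was each gate's read frequency times its gate number, summed.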

Row | Sequence | protein stability index (doa10∆) | protein stability index (pdr5∆) | protein stability index (san1∆) | protein stability index (ubr1∆)
1 | RFAFSVIWELDDSANIV [DIS3] | 2.63 ± 0.06 | 2.49 ± 0.067 | 3.01 ± 0.063 | 2.62 ± 0.047
2 | YDLLISTLTTISGNPPL [SRB5] | 2.43 ± 0.052 | 2.3 ± 0.045 | 1.77 ± 0.07 | 2.46 ± 0.04
3 | AHRNGIKKPKTYKYPSL [RPL29] | 3.42 ± 0.11 | 2.96 ± 0.15 | 3.19 ± 0.28 | 2.95 ± 0.1
4 | EKLINNSDDCMMEEIIN [ECM29] | 3.36 ± 0.11 | 3.1 ± 0.11 | 3.1 ± 0.066 | 3.13 ± 0.12
5 | LITVMEKSPDPTIRSNA [YCS4] | 2.35 ± 0.052 | 2.48 ± 0.051 | 2.34 ± 0.053 | 2.57 ± 0.038
6 | INKEIFHHWLVEFINKM [SRB8] | 1.49 ± 0.17 | 1.76 ± 0.12 | 3.03 ± 0.053 | 1.6 ± 0.088
7 | LASAIASGLLRAYLSHS [CSN12] | 1.85 ± 0.045 | 1.5 ± 0.052 | 1.62 ± 0.071 | 1.4 ± 0.054
8 | HRLIATHTNLERDEQKR [SNF2] | 3.38 ± 0.069 | 3.25 ± 0.074 | 3.01 ± 0.11 | 3.32 ± 0.048
9 | ISDVKIQVAAFIYGMSA [PRP8] | – | 2.17 ± 0.17 | 1.84 ± 0.12 | 1.94 ± 0.14
10 | QGFSKDTFELIKTFLVD [YDL116W/NUP84] | 3.02 ± 0.079 | 3.26 ± 0.063 | 2.75 ± 0.062 | 3.25 ± 0.043
11 | LYAERVQDRGLSAVAQA [RPS3] | 3.09 ± 0.069 | 3.28 ± 0.065 | 3.3 ± 0.09 | 3.22 ± 0.044
12 | NLLTPQPTNFTTKRLWS [MCD1] | 2.79 ± 0.074 | 2.79 ± 0.063 | 2.73 ± 0.064 | 2.85 ± 0.065
13 | SPELKAELRPLQFKSIR [RPS7A] | 2.91 ± 0.11 | 3.54 ± 0.11 | 2.61 ± 0.14 | 3.07 ± 0.12
14 | SDNVSFEIQGVPPMKLA [YMR129W/POM152] | 2.8 ± 0.11 | 3.18 ± 0.083 | 3.05 ± 0.062 | 2.86 ± 0.088
15 | PTVKYNRKVRAGRGFTL [RPL13A] | 2.62 ± 0.059 | 2.87 ± 0.058 | 2.94 ± 0.045 | 2.78 ± 0.053
16 | NLLQISAAELERLDKDK [SNF5] | 2.5 ± 0.12 | 2.89 ± 0.13 | 2.91 ± 0.18 | –
17 | DVSQLIAGINKKKGLDE [PRP28] | 3.43 ± 0.095 | 3.64 ± 0.11 | 3.29 ± 0.086 | 3.76 ± 0.11
18 | MNLVLNECIEERVPKTQ [SMB1] | 2.3 ± 0.23 | – | – | –
19 | KSCEPVSISTSVKPHVV [SIR4] | 2.6 ± 0.069 | 2.97 ± 0.077 | 2.28 ± 0.11 | 2.42 ± 0.045
20 | LKNKREIYRISFQLSKI [RPS9B] | 3.34 ± 0.18 | 3.66 ± 0.16 | 3.54 ± 0.062 | 3.38 ± 0.12
21 | GRFLRVPKEGLFYFDSS [BRR2] | 3.18 ± 0.11 | 3.32 ± 0.073 | 3.3 ± 0.081 | 3.1 ± 0.054
22 | FVYNKVNETEAILYTKP [YGR119C/NUP57] | 2.76 ± 0.084 | 3.06 ± 0.072 | 2.74 ± 0.056 | 2.97 ± 0.07
23 | IEILVKDNECSSFEENN [RRI2] | 2.86 ± 0.13 | 3.02 ± 0.13 | 2.89 ± 0.12 | 3.33 ± 0.12
24 | QRQERLRQQQQQQDQPE [RPN10] | 3.34 ± 0.098 | 2.88 ± 0.064 | 2.86 ± 0.088 | 3.22 ± 0.056
25 | CNQMENLLESITKLLEI [YCS4] | 3.19 ± 0.083 | 2.8 ± 0.054 | 2.9 ± 0.061 | 2.96 ± 0.059
26 | PNPNNMKTVQSPMGAQP [GAL11] | 3.21 ± 0.13 | 2.96 ± 0.095 | 2.96 ± 0.12 | 2.94 ± 0.075
27 | AATVRSTIRRLREMVEA [RPL43A] | 3.02 ± 0.084 | 2.8 ± 0.056 | 2.74 ± 0.086 | 3.09 ± 0.064
28 | SPFFVLDEVDAALDITN [SMC1] | 2.39 ± 0.093 | 2.78 ± 0.071 | 2.63 ± 0.066 | 2.69 ± 0.057

Row | Sequence | protein stability index (doa10∆) | protein stability index (pdr5∆) | protein stability index (san1∆) | protein stability index (ubr1∆)
29 | GDKDTRADIVRNIILEA [ISW2] | 2.1 ± 0.1 | 2.41 ± 0.06 | 2.09 ± 0.099 | 2.56 ± 0.11
30 | PTETYSDVGGLDKQIEE [RPT5] | 3.36 ± 0.21 | 3.35 ± 0.11 | 3.12 ± 0.068 | 3.21 ± 0.13
31 | QCCEFMTMLTPNYLHLV [YML103C/NUP188] | 2.23 ± 0.05 | 1.77 ± 0.045 | 1.66 ± 0.084 | 1.68 ± 0.041
32 | SIAAERYDYSDEVGRRS [YCG1] | 3 ± 0.075 | 2.99 ± 0.11 | 2.65 ± 0.14 | 3.04 ± 0.063
33 | FNATVDETKGFDDNDSG [MED2] | 3.14 ± 0.09 | 3.17 ± 0.078 | 3.25 ± 0.066 | 3.29 ± 0.078
34 | DIQLKNLFPLKPKMLPI [SRP68] | 2.78 ± 0.077 | 2.66 ± 0.057 | 2.4 ± 0.058 | 2.46 ± 0.073
35 | SEDLFADGLLQVLVCTA [BRR2] | – | – | – | 2.25 ± 0.13
36 | NVDQTKTQCPNYDTCGG [RPC11] | 3.48 ± 0.13 | 3.15 ± 0.18 | 3.06 ± 0.08 | 3.21 ± 0.093
37 | QARTATLKYICAECSSK [RPC10] | 2.72 ± 0.12 | 2.98 ± 0.1 | 2.84 ± 0.065 | 2.79 ± 0.073
38 | SSKTSQPKPLFSFGKSD [YOR098C/NUP1] | 2.16 ± 0.043 | 2.4 ± 0.027 | 2.19 ± 0.047 | 2.16 ± 0.035
39 | KSLDAETEAEEDHMLKK [RPO21] | 3.15 ± 0.29 | 2.56 ± 0.21 | 3.19 ± 0.1 | 3.16 ± 0.094
40 | VEDVSQNAADLQQICRV [RPL9A] | 2.96 ± 0.096 | 3.42 ± 0.047 | 2.76 ± 0.093 | 3.03 ± 0.051
41 | APLKHGVGILYKGMASN [BRR2] | 1.93 ± 0.078 | 1.68 ± 0.076 | 1.38 ± 0.13 | 1.3 ± 0.11
42 | AASALDEKEKQLAVANE [SIR4] | 2.92 ± 0.081 | 3.28 ± 0.072 | 3.3 ± 0.055 | 3.36 ± 0.073
43 | DIIMNPHGFPSRMTVGK [RET1] | 2.67 ± 0.056 | 2.83 ± 0.076 | 2.79 ± 0.049 | 2.71 ± 0.065
44 | LIYVNPFMLQWGIPLIK [FAS1] | 1.45 ± 0.082 | 1.4 ± 0.099 | 1.13 ± 0.14 | 1.65 ± 0.064
45 | ITKEVTQVNILKENNAI [YIL149C/MLP2] | 2.91 ± 0.057 | 3.14 ± 0.065 | 2.87 ± 0.085 | 3.17 ± 0.044
46 | EEYRKQLDKKNELQKFQ [SMC1] | 3.44 ± 0.22 | 3.43 ± 0.12 | 2.82 ± 0.079 | 3.45 ± 0.1
47 | TVELQVGLKNYDPQRDK [RPL1A] | 3.05 ± 0.091 | 3.12 ± 0.082 | 3.12 ± 0.094 | 3.18 ± 0.076
48 | DGTAKEVGDEADNTKDK [MED4] | 3.06 ± 0.11 | 3.18 ± 0.12 | 3.34 ± 0.088 | 3.22 ± 0.077
49 | RGSSSLYTLVINDAGKA [RPL38] | 1.57 ± 0.061 | 1.26 ± 0.068 | 1.17 ± 0.13 | 1.12 ± 0.086
50 | QPWQMDTNNEADLMALE [SNF12] | 2.59 ± 0.068 | 3.25 ± 0.076 | 2.86 ± 0.054 | 3.2 ± 0.036
51 | RVVMMKYDRKVPSPTGE [RPO21] | 2.69 ± 0.11 | 3.11 ± 0.069 | 2.69 ± 0.079 | 2.89 ± 0.043
52 | MEETEQKKIQINKEMGE [SMC3] | – | – | – | 2.49 ± 0.26
53 | IKLDIVVGQNQLIDQFE [SNF5] | 1.88 ± 0.075 | 2.07 ± 0.098 | 2.11 ± 0.092 | 2.25 ± 0.085
54 | LDFIGRRGTALGIKKEK [RPB2] | 1.68 ± 0.075 | 2.03 ± 0.097 | 2.27 ± 0.059 | 2.07 ± 0.08
55 | LPKVRIRTRRAAELLDK [DIS3] | 1.78 ± 0.096 | 1.48 ± 0.088 | 1.3 ± 0.17 | 1.28 ± 0.072

Source: the supplement of paper PMC9732359
